# Publication PMC11329700
# B1: GST-Dyn1xA-PRR (dynamin 1xA proline-rich region, amino acids 746-864) [rat] / Amphiphysin 1 [rat (endogenous in rat brain synaptosomes)] (parent)
# chain 1: NTTTVSTPMPPPVDDSWLQVQSVPAGRRSPTSSPTPQRRAPAVPPARPGSRGPAPGPPPAGSALGGAPPVPSRPGASPDPFGPPPQVPSRPNRAPPGVPSRSGQASPSRPESPRPPFDL
# chain 2: MADIKTGIFAKNVQKRLNRAQEKVLQKLGKADETKDEQFEEYVQNFKRQEAEGTRLQRELRGYLAAIKGMQEASMKLTESLHEVYEPDWYGREDVKMVGEKCDVLWEDFHQKLVDGSLLTLDTYLGQFPDIKNRIAKRSRKLVDYDSARHHLEALQSSKRKDESRISKAEEEFQKAQKVFEEFNVDLQEELPSLWSRRVGFYVNTFKNVSSLEAKFHKEIAVLCHKLYEVMTKLGDQHADKAFSIQGAPSDSGPLRIAKTPSPPEEASPLPSPTASPNHTLAPASPAPVRPRSPSQTRKGPPVPPLPKVTPTKELQQENIINFFEDNFVPEINVTTPSQNEVLEVKKEETLLDLDFDPFKPDVTPAGSAAATHSPMSQTLPWDLWTTSTDLVQPASGGSFNDFTQPQDTSLFTMQTDQNMAETEQALPTEPQAEEPPTTAAAPTAGLDLGLEMEEPKEEAAIPPGTDAGETVGTEGSTGEEAEAEKAALPAGEGESPEGAKIDVESTELASSESPQAAELEAGAPQEKVIPSVVIEPASNHEGEEHQETTTGTETREATEDVAPQGPAGEKQELATEPTPLDSQAATPAPAGAVDASLSAGDAAQELPPGFLYKVETLHDFEAANSDELTLQRGDVVLVVPSDSEADQDAGWLVGVKESDWLQYRDLATYKGLFPENFTRHLE
# B2: GST-Dyn1xA-PRR (dynamin 1xA proline-rich region, amino acids 746-864) [rat] / Endophilin A1 [rat (endogenous in rat brain synaptosomes)] (parent)
# chain 1: B1 chain 1
# chain 2: MSVAGLKKQFHKATQKVSEKVGGAEGTKLDDDFKEMERKVDVTSRAVMEIMTKTIEYLQPNPASRAKLSMINTMSKIRGQEKGPGYPQAEALLAEAMLKFGRELGDDCNFGPALGEVGEAMRELSEVKDSLDMEVKQNFIDPLQNLHDKDLREIQHHLKKLEGRRLDFDYKKKRQGKIPDEELRQALEKFDESKEIAESSMFNLLEMDIEQVSQLSALVQAQLEYHKQAVQILQQVTVRLEERIRQASSQPRREYQPKPRMSLEFATGDGTQPNGGLSHTGTPKPAGVQMDQPCCRALYDFEPENEGELGFKEGDIITLTNQIDENWYEGMLHGQSGFFPINYVEILVALPH
# Variants of: B1
# Assay: GST pull-down, densitometric analysis of Western blots
# Settings: with Amphiphysin 1 [rat (endogenous in rat brain synaptosomes)]; parent: 100; read off a plot
row,Variant,percent of parent [%]
1,chain 1 NTTTVSTPMPPPVDDSWLQVQSVPAGRREPTSEPTPQRRAPAVPPARPGSRGPAPGPPPAGSALGGAPPVPSRPGASPDPFGPPPQVPSRPNRAPPGVPSRSGQASPSRPESPRPPFDL,98
2,chain 1 NTTTVSTPMPPPVDDSWLQVQSVPAGRRSPTSSPTPQRRAPAVPPARPGSRGPAPGPPPAGSALGGAPPVPSRPGASPDPFGPPPQVPSRPNRAPPGVPSRSGQAEPSRPEEPRPPFDL,91

# Variants of: B2
# Assay: as above
# Settings: with Endophilin A1 [rat (endogenous in rat brain synaptosomes)]; parent: 100; read off a plot
row,Variant,percent of parent [%]
1,chain 1 S106E S112E,48
2,chain 1 S29E S33E,31
